Assay results as given in US20140072613A1, “Compositions and Methods for Treating Cutaneous Scarring” (priority 2012, published 2014).

Assays:
Assay in all cases: biochemical
Assay type in all cases: biochemical
[1] = target: 266 human kinases (Homo sapiens, UniProt P35968); conditions: KDR(h); 100 μM
Procedure, shortened: (§1)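 Read-out by scintillation counting of radiolabelled, positively charged substrate bound to negatively charged filter; activity normalised to 100% control. Phosphate transferred from radiolabelled ATP.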

[2] = target: 266 human kinases (Homo sapiens, UniProt Q9UK32); conditions: Rsk4(h); 100 μM
Procedure, shortened: as §1

[3] = target: 266 human kinases (Homo sapiens, UniProt Q05655); conditions: PKGδ(h); 100 μM
Procedure, shortened: as §1

[4] = target: 266 human kinases (Homo sapiens, UniProt Q13177); conditions: PAK2(h); 100 μM
Procedure, shortened: as §1

[5] = target: 266 human kinases (Homo sapiens, UniProt Q14680); conditions: MELK(h); 100 μM
Procedure, shortened: as §1

[6] = target: 266 human kinases (Homo sapiens, UniProt Q9Y6E0); conditions: MST3(h); 100 μM
Procedure, shortened: as §1

[7] = target: 266 human kinases (Homo sapiens, UniProt Q04912); conditions: Ron(h); 100 μM
Procedure, shortened: as §1

[8] = target: 266 human kinases (Homo sapiens, UniProt O43353); conditions: RIPK2(h); 100 μM
Procedure, shortened: as §1

[9] = target: 266 human kinases (Homo sapiens, UniProt P17612); conditions: PKA(h); 100 μM
Procedure, shortened: as §1

[10] = target: T1, 266 human kinases (Homo sapiens, UniProt Q8TF76); conditions: Haspin(h); 100 μM
T1 sequence (Q8TF76 1-798): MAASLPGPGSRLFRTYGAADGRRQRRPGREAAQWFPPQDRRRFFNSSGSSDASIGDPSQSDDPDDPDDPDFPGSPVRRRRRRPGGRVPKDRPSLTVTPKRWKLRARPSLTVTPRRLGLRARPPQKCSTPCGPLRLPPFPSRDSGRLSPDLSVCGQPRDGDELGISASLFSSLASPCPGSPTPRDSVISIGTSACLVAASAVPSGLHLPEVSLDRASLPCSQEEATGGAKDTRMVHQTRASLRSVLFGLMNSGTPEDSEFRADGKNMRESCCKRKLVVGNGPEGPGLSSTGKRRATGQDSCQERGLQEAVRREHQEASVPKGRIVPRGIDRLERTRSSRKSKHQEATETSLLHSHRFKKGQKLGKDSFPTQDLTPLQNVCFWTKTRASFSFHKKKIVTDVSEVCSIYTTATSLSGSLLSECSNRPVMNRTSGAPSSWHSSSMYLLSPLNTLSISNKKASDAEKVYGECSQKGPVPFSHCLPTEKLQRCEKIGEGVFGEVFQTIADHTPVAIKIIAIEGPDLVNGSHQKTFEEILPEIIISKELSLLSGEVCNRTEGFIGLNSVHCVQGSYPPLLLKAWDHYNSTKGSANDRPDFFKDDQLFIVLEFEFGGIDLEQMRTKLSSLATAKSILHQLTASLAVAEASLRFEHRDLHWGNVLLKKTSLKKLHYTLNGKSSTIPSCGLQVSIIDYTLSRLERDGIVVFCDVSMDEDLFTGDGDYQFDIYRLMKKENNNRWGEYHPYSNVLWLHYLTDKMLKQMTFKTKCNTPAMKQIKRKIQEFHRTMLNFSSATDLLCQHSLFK
Procedure, shortened: as §1

[11] = target: T2, 266 human kinases (Homo sapiens, UniProt P51813); conditions: Bmx(h); 100 μM
T2 sequence (P51813 1-675): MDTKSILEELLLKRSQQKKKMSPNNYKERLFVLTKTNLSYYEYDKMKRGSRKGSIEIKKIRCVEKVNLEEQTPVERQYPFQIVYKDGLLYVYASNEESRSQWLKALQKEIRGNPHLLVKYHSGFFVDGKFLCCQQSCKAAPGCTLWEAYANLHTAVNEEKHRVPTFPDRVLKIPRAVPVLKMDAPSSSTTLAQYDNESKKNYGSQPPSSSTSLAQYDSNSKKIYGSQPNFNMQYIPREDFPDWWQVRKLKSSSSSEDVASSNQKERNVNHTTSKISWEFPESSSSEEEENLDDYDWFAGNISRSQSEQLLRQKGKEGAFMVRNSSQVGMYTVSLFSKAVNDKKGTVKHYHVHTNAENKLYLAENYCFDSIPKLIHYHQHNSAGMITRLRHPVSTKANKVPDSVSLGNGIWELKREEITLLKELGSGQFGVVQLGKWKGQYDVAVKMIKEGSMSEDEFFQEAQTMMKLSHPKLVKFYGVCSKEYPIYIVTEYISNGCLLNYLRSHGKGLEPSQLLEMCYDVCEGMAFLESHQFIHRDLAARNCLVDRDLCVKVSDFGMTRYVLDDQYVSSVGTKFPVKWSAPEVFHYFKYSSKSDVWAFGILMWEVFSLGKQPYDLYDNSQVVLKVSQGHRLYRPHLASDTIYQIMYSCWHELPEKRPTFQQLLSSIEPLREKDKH
Procedure, shortened: as §1

[12] = system: 266 human kinases; conditions: for % activity: 100 μM; for off-target kinase inhibition: at 100 μM
Procedure, shortened: as §1

[13] = target: 266 human kinases (Homo sapiens, UniProt Q16566); conditions: CaMKIV(h); 100 μM
Procedure, shortened: as §1

[14] = target: 266 human kinases (Homo sapiens, UniProt P07333); conditions: Fms(h); 100 μM
Procedure, shortened: as §1

[15] = target: 266 human kinases (Homo sapiens, UniProt Q13043); conditions: MST1(h); 100 μM
Procedure, shortened: as §1

[16] = target: 266 human kinases (Homo sapiens, UniProt Q9P286); conditions: PAK5(h); 100 μM
Procedure, shortened: as §1

Chain of 266 human kinases (Homo sapiens, UniProt Q13043) (Q13043 whole entry): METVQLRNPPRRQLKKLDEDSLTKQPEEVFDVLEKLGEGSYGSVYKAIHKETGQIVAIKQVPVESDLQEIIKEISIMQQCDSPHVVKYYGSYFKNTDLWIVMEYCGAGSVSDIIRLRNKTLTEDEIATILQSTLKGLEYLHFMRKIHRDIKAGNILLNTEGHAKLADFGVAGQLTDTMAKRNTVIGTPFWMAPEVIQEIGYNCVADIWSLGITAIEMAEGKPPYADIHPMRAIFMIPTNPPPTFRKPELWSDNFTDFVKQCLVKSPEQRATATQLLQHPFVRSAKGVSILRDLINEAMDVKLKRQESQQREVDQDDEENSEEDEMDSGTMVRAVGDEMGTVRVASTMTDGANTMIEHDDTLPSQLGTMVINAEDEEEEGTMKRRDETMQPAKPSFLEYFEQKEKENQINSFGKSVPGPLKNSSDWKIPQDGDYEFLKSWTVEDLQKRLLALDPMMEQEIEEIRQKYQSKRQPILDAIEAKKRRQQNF
Chain of 266 human kinases (Homo sapiens, UniProt Q16566) (Q16566 whole entry): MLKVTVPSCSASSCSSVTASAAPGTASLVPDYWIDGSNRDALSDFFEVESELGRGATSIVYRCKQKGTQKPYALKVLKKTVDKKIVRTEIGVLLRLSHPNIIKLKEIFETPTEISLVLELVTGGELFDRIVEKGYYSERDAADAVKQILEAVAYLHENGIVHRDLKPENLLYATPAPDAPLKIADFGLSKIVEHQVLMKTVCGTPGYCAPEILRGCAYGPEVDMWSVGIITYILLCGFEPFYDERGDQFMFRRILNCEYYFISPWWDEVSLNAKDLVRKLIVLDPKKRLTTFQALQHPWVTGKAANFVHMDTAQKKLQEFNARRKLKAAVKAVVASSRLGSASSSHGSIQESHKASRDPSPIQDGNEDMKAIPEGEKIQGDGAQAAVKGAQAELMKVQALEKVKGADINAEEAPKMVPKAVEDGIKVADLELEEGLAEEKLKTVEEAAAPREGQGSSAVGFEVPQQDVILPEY
Chain of 266 human kinases (Homo sapiens, UniProt P35968) (P35968 20-1356): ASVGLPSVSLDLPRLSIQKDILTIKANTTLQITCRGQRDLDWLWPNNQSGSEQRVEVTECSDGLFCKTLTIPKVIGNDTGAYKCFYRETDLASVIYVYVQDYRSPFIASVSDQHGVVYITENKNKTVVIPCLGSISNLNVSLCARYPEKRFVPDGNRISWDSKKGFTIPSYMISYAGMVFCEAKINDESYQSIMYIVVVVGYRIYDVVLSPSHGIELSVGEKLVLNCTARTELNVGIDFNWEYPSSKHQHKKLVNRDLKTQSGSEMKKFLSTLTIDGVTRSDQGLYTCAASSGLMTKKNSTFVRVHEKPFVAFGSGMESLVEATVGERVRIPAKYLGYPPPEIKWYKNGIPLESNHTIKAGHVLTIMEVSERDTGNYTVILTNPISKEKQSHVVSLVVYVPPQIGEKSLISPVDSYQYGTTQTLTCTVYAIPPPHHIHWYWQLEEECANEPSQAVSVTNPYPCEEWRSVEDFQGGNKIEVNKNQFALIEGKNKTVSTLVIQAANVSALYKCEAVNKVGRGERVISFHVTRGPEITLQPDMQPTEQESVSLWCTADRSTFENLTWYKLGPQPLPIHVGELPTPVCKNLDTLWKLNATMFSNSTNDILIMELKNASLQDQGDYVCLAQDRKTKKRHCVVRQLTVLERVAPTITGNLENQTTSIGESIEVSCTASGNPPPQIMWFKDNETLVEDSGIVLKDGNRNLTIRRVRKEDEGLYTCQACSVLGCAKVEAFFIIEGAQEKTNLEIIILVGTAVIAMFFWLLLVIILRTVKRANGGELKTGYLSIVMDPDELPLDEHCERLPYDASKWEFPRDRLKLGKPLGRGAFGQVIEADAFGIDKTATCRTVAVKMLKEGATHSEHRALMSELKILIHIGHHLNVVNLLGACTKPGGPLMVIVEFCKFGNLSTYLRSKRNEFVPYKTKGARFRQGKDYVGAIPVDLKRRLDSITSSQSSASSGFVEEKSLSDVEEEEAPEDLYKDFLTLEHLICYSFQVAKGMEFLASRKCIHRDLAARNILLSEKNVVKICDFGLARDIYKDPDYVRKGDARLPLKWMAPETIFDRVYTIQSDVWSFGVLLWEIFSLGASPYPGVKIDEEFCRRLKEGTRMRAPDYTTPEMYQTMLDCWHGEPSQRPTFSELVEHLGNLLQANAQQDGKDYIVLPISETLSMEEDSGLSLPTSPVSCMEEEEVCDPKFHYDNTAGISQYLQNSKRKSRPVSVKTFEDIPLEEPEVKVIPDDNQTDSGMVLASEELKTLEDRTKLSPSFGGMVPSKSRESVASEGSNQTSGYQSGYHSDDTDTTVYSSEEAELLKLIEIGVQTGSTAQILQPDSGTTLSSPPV
Chain of 266 human kinases (Homo sapiens, UniProt Q9UK32) (Q9UK32 whole entry): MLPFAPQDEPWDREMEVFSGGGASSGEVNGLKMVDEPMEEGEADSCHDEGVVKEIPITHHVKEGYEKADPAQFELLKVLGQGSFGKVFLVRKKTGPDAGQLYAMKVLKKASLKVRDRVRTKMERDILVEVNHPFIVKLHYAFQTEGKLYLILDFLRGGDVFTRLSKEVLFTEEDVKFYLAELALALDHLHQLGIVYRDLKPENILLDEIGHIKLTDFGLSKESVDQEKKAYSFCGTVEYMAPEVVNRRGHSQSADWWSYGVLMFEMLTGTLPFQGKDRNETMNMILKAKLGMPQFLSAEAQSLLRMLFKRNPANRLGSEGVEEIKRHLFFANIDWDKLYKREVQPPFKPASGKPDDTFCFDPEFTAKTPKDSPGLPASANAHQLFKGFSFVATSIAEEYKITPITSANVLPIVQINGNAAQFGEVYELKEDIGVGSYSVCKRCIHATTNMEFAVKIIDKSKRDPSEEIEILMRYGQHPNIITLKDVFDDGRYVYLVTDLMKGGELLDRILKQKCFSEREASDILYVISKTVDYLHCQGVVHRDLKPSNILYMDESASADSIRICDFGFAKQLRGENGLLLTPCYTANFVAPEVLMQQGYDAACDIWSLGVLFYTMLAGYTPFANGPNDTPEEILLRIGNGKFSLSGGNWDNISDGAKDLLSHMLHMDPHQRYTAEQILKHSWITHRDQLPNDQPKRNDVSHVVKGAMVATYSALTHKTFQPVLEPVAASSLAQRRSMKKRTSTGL
Chain of 266 human kinases (Homo sapiens, UniProt Q13177) (Q13177 whole entry): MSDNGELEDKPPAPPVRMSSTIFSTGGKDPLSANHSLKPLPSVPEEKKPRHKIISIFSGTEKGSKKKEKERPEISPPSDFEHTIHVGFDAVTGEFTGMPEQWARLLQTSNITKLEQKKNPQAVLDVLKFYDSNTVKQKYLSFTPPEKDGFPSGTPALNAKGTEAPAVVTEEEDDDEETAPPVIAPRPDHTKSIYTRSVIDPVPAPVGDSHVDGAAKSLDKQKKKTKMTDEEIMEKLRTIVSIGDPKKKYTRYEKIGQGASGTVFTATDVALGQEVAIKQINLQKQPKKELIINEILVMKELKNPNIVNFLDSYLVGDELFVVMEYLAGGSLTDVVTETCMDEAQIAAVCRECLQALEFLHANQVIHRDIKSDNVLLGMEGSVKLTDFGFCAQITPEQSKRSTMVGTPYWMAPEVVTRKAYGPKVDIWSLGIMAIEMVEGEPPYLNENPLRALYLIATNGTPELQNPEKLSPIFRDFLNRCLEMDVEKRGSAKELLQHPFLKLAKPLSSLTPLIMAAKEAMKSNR
Chain of 266 human kinases (Homo sapiens, UniProt Q9P286) (Q9P286 whole entry): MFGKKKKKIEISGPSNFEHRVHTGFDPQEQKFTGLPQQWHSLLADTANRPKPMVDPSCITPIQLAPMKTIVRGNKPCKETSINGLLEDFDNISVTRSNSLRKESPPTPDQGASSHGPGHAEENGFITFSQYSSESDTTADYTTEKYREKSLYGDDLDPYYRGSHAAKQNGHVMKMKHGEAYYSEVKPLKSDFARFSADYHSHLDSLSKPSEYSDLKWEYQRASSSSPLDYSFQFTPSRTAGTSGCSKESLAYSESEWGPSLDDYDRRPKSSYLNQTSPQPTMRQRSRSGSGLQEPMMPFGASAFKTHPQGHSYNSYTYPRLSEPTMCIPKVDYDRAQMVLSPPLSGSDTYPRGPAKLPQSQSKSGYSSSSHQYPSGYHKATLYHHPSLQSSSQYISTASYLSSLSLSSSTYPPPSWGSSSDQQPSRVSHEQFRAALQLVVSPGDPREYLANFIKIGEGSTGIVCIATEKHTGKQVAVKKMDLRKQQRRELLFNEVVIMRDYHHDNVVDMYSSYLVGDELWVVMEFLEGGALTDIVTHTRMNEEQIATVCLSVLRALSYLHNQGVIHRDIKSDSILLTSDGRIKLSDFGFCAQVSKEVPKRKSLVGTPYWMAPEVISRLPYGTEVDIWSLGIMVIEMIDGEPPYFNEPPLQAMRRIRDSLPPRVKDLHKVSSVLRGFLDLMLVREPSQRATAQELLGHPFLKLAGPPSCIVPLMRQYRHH
Chain of 266 human kinases (Homo sapiens, UniProt Q05655) (Q05655 whole entry): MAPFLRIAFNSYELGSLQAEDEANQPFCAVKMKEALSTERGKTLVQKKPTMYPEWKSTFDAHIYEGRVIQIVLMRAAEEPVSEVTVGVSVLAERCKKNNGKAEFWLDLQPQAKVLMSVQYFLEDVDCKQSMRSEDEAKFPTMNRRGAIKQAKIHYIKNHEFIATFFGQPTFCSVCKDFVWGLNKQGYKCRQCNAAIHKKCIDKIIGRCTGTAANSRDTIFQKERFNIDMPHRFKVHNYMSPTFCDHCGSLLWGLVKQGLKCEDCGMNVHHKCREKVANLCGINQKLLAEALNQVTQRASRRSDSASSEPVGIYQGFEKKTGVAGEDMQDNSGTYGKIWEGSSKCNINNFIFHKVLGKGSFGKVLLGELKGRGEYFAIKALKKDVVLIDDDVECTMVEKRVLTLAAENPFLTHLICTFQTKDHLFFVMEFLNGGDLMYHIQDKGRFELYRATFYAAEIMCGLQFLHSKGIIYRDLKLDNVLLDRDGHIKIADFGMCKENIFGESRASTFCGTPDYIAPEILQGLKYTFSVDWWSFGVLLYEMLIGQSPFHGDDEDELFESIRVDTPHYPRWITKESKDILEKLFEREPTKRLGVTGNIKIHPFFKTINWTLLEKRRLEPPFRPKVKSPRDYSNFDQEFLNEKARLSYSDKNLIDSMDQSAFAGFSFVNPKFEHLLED

Q: With “HRRIKAWLKKIKALARQLGVAA (mammal) [MMI-0500]” as the sequence, how does the “% activity” value [1] read?
A: Its value is 15%.

Q: And the “% activity” value [2]?
A: The value was 29%.

Q: What about the “% activity” value [3] of the same sequence?
A: The value was 61%.

Q: And the “% activity” value [4]?
A: The value was 44%.

Q: And the “% activity” value [5]?
A: Its value is 0%.

Q: And the “% activity” value [6]?
A: The value was 4%.

Q: What about the “% activity” value [7] of the same sequence?
A: The value was 46%.

Q: What about the “% activity” value [8] of the same sequence?
A: Its value is 30%.

Q: And the “% activity” value [9]?
A: Its value is 118%.

Q: And the “% activity” value [10]?
A: The value was 25%.

Q: What about the “% activity” value [11] of the same sequence?
A: Its value is 45%.

Q: And the “% activity” value ([12]; PKCβII(h))?
A: The value was 3%.

Q: What about the “% activity” value ([12]; PKG1β(h)) of the same sequence?
A: The value was 24%.

Q: And the off-target kinase inhibition [12]?
A: The off-target kinase inhibition was “very limited off-target kinase inhibition”.

Q: And the “% activity” value [13]?
A: The value was -1%.

Q: And the “% activity” value [14]?
A: Its value is 14%.

Q: What about the “% activity” value [15] of the same sequence?
A: Its value is 3%.

Q: And the “% activity” value [16]?
A: The value was 125%.

Q: How did the “% activity” value [1] turn out when “YARAAARQARAKALNRQLGVA (mammal) [MMI-0200]” was run?
A: The value was 110%.

Q: And the “% activity” value [2]?
A: Its value is 125%.

Q: What about the “% activity” value [3] of the same sequence?
A: The value was 101%.

Q: What about the “% activity” value [4] of the same sequence?
A: Its value is 69%.

Q: And the “% activity” value [5]?
A: The value was 59%.

Q: What about the “% activity” value [6] of the same sequence?
A: The value was 95%.

Q: And the “% activity” value [7]?
A: The value was 120%.

Q: And the “% activity” value [8]?
A: Its value is 98%.

Q: And the “% activity” value [9]?
A: The value was 110%.

Q: What about the “% activity” value [10] of the same sequence?
A: Its value is 71%.

Q: And the “% activity” value [11]?
A: Its value is 76%.

Q: What about the “% activity” value ([12]; MAPK1(h)) of the same sequence?
A: Its value is 97%.

Q: And the “% activity” value ([12]; PKCβII(h))?
A: The value was 100%.

Q: And the “% activity” value ([12]; PKG1β(h))?
A: The value was 57%.

Q: What about the off-target kinase inhibition [12] of the same sequence?
A: Its off-target kinase inhibition is “very limited off-target kinase inhibition”.

Q: And the “% activity” value [13]?
A: The value was 71%.

Q: What about the “% activity” value [14] of the same sequence?
A: Its value is 92%.

Q: And the “% activity” value [15]?
A: Its value is 72%.

Q: And the “% activity” value [16]?
A: The value was 100%.
